Laboratory results reported in PMC4772114, “Structural basis for the regulation of enzymatic activity of Regnase-1 by domain-domain interactions” (Scientific Reports, 2016).

Assays:
[1] = molecular target: T1, Regnase-1 PIN domain, catalytically inactive monomeric mutant (DDNN and D278R) (Mus musculus, UniProt Q5D1E7 134-295, D226N | D244N | D278R); assay: NMR titration; 1H-15N HSQC of 15N-labeled NTD at 100 uM with unlabeled PIN (DDNN, D278R) added (3 or 6 molar equivalents); 298 K; apparent Kd from the titration curve of L58; details: both partners purified
T1 construct: Regnase-1 (Zc3h12a), Mus musculus, PIN domain; the discussion gives PIN as residues 134-295; Limits as for m1; Uniformly 15N-labelled or unlabelled in the NMR experiments; not shown: GST, N-terminal, cleaved
T1 sequence (looked up): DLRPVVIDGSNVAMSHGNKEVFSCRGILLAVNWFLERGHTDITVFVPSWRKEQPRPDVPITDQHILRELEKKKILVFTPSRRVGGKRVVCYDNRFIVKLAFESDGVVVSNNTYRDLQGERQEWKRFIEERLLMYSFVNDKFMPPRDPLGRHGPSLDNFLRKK

[2] = molecular target: the molecule itself; assay: not stated; Kd of PIN-PIN told in the discussion only; how it was estimated is not told
[3] = molecular target: the molecule itself; assay: crystal structure; PIN-ZF (134-339), sitting drop vapor diffusion at 20 C; form I (P3_121, selenomethionine-labeled) and form II (P3_221, native)
[4] = molecular target: the molecule itself; assay: SEC; gel filtration of the PIN domain and its mutants; elution volume compared with standard marker proteins; concentration dependent, 20-200 uM range
Regnase-1 ZF domain = molecular target: T2, Regnase-1 ZF domain (Mus musculus, UniProt Q5D1E7 299-339); assay: NMR titration (1H-15N HSQC, Y314); Zn2+-bound ZF; 100 uM ZF; apparent Kd; EMSA: 20 mM HEPES-NaOH pH 6.8, 150 mM NaCl, 1 mM DTT, 10% glycerol, 0.1% NP-40, 4 C, 30 min; NMR buffer not in material; details: protein: recombinant; tags: GST removed (HRV-3C), 15N-labeled
T2 chain: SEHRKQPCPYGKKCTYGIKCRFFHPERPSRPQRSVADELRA

B1: Regnase-1 N-terminal domain (NTD) (domain or fragment, Mus musculus)
chain: TSELQMKVDFFRKLGYSSSEIHSVLQKLGVQADTNTVLGELVKHG
notes: Regnase-1 (Zc3h12a), Mus musculus, N-terminal domain; residues 90-133 are called the connection between the NTD and PIN; Uniformly 15N-labelled or unlabelled in the NMR experiments; not shown: GST, N-terminal, cleaved
Kd [1]: 110 ± 5.8 µM

B2: Regnase-1 PIN domain, wild type (domain or fragment, Mus musculus, UniProt Q5D1E7 134-295, looked up)
chain: DLRPVVIDGSNVAMSHGNKEVFSCRGILLAVNWFLERGHTDITVFVPSWRKEQPRPDVPITDQHILRELEKKKILVFTPSRRVGGKRVVCYDDRFIVKLAFESDGVVVSNDTYRDLQGERQEWKRFIEERLLMYSFVNDKFMPPDDPLGRHGPSLDNFLRKK
notes: Regnase-1 (Zc3h12a, MCPIP1), Mus musculus, PIN domain; the discussion gives PIN as residues 134-295; The limits 134-295 are told for the PIN domain in the discussion, not expressly for the construct; 15N-labelled for NMR; also called PilT N-terminus like domain; not shown: GST, N-terminal, cleaved
Kd [2]: ~100 µM

B3: Regnase-1 PIN-ZF (residues 134-339) (domain or fragment, Mus musculus, UniProt Q5D1E7 134-339, looked up)
chain: DLRPVVIDGSNVAMSHGNKEVFSCRGILLAVNWFLERGHTDITVFVPSWRKEQPRPDVPITDQHILRELEKKKILVFTPSRRVGGKRVVCYDDRFIVKLAFESDGVVVSNDTYRDLQGERQEWKRFIEERLLMYSFVNDKFMPPDDPLGRHGPSLDNFLRKKPLPSEHRKQPCPYGKKCTYGIKCRFFHPERPSRPQRSVADELRA
modifications: selenomethionine-labeled (form I crystals); native (form II crystals)
notes: Regnase-1 (Zc3h12a), Mus musculus, PIN and ZF domains, residues 134-339; Electron density was observed only for the PIN domain; also called fragment containing both the PIN and ZF domains; not shown: GST, N-terminal, cleaved
binding result [3]: binds

B4: Regnase-1 PIN domain R215E (domain or fragment, Mus musculus, UniProt Q5D1E7 134-295, looked up)
chain: DLRPVVIDGSNVAMSHGNKEVFSCRGILLAVNWFLERGHTDITVFVPSWRKEQPRPDVPITDQHILRELEKKKILVFTPSREVGGKRVVCYDDRFIVKLAFESDGVVVSNDTYRDLQGERQEWKRFIEERLLMYSFVNDKFMPPDDPLGRHGPSLDNFLRKK
notes: Regnase-1 (Zc3h12a), Mus musculus, PIN domain; the discussion gives PIN as residues 134-295; Limits as for m1; not shown: GST, N-terminal, cleaved
binding result [4]: binds

B5: IL-6 mRNA 3'UTR (82-106) (ssRNA)
RNA: UGUUGUUCUCUACGAAGAACUGACA
Kd (Regnase-1 ZF domain): 10 ± 1.1 µM
